In patent publication US20200062863A1 (CSL BEHRING, published 2020):
Several values for one entry are separate records, joined by “and”; a condition that tells them apart may be missing. Equal values may be shown once.

What was measured:
[1] = target: T1, human FXIIa (human, UniProt P00748 20-615, limits assumed)
T1 sequence: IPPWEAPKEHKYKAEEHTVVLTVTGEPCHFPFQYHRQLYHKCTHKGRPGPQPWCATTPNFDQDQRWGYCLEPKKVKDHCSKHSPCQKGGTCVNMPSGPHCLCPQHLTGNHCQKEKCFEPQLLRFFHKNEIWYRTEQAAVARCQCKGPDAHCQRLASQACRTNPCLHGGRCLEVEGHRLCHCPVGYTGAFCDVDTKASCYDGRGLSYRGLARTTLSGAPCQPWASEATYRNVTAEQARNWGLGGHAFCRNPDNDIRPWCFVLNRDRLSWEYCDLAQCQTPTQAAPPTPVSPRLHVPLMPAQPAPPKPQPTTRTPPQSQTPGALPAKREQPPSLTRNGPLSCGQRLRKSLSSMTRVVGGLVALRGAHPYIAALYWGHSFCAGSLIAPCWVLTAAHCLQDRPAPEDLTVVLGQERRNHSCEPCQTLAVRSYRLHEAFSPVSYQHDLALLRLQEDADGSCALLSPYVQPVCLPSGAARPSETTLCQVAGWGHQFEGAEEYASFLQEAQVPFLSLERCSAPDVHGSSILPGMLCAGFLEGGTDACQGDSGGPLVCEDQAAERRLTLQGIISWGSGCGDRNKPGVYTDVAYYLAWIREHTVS

[2] = target: T2, human Factor XIIa-alpha (human, UniProt P00748 20-615); experiment: cell-based or functional assay
T2 sequence: T1 sequence

[3] = target: T3, human Factor XII (human, UniProt P00748 20-615); experiment: SPR (Biacore), purified IgG captured on anti-mouse Fc antibody, FXII 0-500 nM, 1:1 fit, 25 C
T3 construct: Zymogen bought from Enzyme Research Laboratories; also called FXII
T3 sequence: T1 sequence

[4] = target: T4, human Factor XIIa-beta (human, UniProt P00748 354-615, limits assumed); experiment: SPR (Biacore), purified IgG captured on anti-mouse Fc antibody, FXIIa beta 0-40 nM, 1:1 fit, 25 C
T4 construct: Bought from Enzyme Research Laboratories; also called FXIIa beta; FXIIa-beta
T4 sequence: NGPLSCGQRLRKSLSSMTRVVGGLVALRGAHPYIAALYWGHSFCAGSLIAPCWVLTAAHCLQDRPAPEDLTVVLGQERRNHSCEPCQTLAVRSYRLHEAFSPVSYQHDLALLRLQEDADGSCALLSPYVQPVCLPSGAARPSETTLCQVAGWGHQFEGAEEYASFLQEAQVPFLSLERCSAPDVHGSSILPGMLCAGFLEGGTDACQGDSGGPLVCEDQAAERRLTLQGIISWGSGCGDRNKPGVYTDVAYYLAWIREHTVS

m3 (parameter of the curve fit, printed in the legend box; x axis Ab in nM) of the inhibition of FXIIa amidolytic activity, OD405 [1]: 12.9 and 13.5
% Inhibition, ratio FXIIa-alpha:Antibody 1:0.1 [2]: 21.6%
% Inhibition, ratio FXIIa-alpha:Antibody 1:0.2 [2]: 37.7%
% Inhibition, ratio FXIIa-alpha:Antibody 1:0.5 [2]: 76.6%
% Inhibition, ratio FXIIa-alpha:Antibody 1:1 [2]: 92.7%
% Inhibition, ratio FXIIa-alpha:Antibody 1:2 [2]: 96.9%
% Inhibition, ratio FXIIa-alpha:Antibody 1:5 [2]: 100%
% Inhibition, ratio FXIIa-alpha:Antibody 1:10 [2]: 100%
Kd [3]: 0.69 nM
Kd [4]: 0.76 nM
Substance: Anti-human FXII antibody (OT-2)
